# From US20120058906A1 (published 2012)
# Where a chain is given by its changes, count along the chain named.
# T1: rHuman Erythropoietin R/Fc Chimera, CF (R&D Systems Cat#963-ER) (human, UniProt P19235 25-250)
# T1 construct: Bought protein; also called EPO R/Fc; EPOR; not shown: Fc of the bought chimera
# T1 sequence: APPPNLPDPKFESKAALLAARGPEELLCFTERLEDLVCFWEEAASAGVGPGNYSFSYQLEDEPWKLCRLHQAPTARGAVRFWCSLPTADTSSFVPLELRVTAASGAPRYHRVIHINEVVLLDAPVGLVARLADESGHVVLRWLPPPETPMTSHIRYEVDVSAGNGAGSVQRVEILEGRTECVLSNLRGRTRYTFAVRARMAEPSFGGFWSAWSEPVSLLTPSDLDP
# B1: Fab VH1-46_IGHD6-13*01_IGHJ4*01 & L2_IGKJ1*01 (Fab, V domains shown)
# VH: QVQLVQSGAEVKKPGASVKVSCKASGYTFTSYYMHWVRQAPGQGLEWMGIINPSGGSTSYAQKFQGRVTMTRDTSTSTVYMELSSLRSEDTAVYYCAREGYSSSWYDYFDYWGQGTLVTVSS
# VL: not shown
# notes: also called Fab No. 7
# B2: Fab VH1-46_IGHD6-6*01_IGHJ1*01 & L6_IGKJ1*01 (Fab, V domains shown)
# VH: B1 VH with G100E, W105S, Y106A, D107E, D110Q, Y111H
# VL: not shown
# notes: Fab from E. coli; VH joined to CH1 with Flag and His tags (Plasmid A), VL to kappa CL (Plasmid C)
# What was measured:
# [1] = target: T2, rHuman IGF-1 sR, CF (R&D Systems Cat#391-GR) (human, UniProt P08069 31-932); test: ECL (MSD multi-spot) titration, Fab at 0.01859 uM; blank spot 1776;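 further: blank spot per well as comparator with Hit at signal to blank ratio of 4 or more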
# T2 construct: Bought soluble receptor; also called insulin-like growth factor-1 soluble receptor; IGF-R1
# [2] = target: T3, rHuman P-Cadherin/Fc Chimera, CF (R&D Systems Cat#861-PC) (human, UniProt P22223 108-654); test: as above
# T3 construct: Bought protein; not shown: Fc of the bought chimera
# [3] = target: T4, Recombinant Human DLL4 (R&D Systems Cat#1506-D4/CF) (human, UniProt Q9NR61 27-524); test: as above
# T4 construct: Bought protein; also called delta-like protein 4
# [4] = target: T5, rHuman EGF R/Fc Chimera, CF (R&D Systems Cat#344-ER) (human, UniProt P00533 25-645); test: as above
# T5 construct: Bought protein; also called epidermal growth factor receptor; not shown: Fc of the bought chimera
# [5] = target: T1, rHuman Erythropoietin R/Fc Chimera, CF …; test: as above
# [6] = target: T6, rHuman Notch-1/Fc Chimera, CF (R&D Systems Cat#3647-TK) (human, UniProt P46531 19-526); test: as above
# T6 construct: Bought protein; not shown: Fc of the bought chimera
# [7] = target: T2, rHuman IGF-1 sR, CF (R&D Systems …); test: ECL (MSD multi-spot) titration, Fab at 1.19 uM; blank spot 24999;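 further: blank spot per well as comparator with Hit at signal to blank ratio of 4 or more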
# [8] = target: T3, rHuman P-Cadherin/Fc Chimera, CF (R&D …); test: as above
# [9] = target: T4, Recombinant Human DLL4 (R&D Systems …); test: as above
# [10] = target: T5, rHuman EGF R/Fc Chimera, CF (R&D …); test: as above
# [11] = target: T1, rHuman Erythropoietin R/Fc Chimera, CF …; test: as above
# [12] = target: T6, rHuman Notch-1/Fc Chimera, CF (R&D …); test: as above
# [13] = target: T2, rHuman IGF-1 sR, CF (R&D Systems …); test: ECL (MSD multi-spot) titration, Fab at 0.2975 uM; blank spot 5019;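 further: blank spot per well as comparator with Hit at signal to blank ratio of 4 or more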
# [14] = target: T3, rHuman P-Cadherin/Fc Chimera, CF (R&D …); test: as above
# [15] = target: T4, Recombinant Human DLL4 (R&D Systems …); test: as above
# [16] = target: T5, rHuman EGF R/Fc Chimera, CF (R&D …); test: as above
# [17] = target: T1, rHuman Erythropoietin R/Fc Chimera, CF …; test: as above
# [18] = target: T6, rHuman Notch-1/Fc Chimera, CF (R&D …); test: as above
# [19] = target: T2, rHuman IGF-1 sR, CF (R&D Systems …); test: ECL (MSD multi-spot) titration, Fab at 0.07438 uM; blank spot 2504;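 further: blank spot per well as comparator with Hit at signal to blank ratio of 4 or more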
# [20] = target: T3, rHuman P-Cadherin/Fc Chimera, CF (R&D …); test: as above
# [21] = target: T4, Recombinant Human DLL4 (R&D Systems …); test: as above
# [22] = target: T5, rHuman EGF R/Fc Chimera, CF (R&D …); test: as above
# [23] = target: T1, rHuman Erythropoietin R/Fc Chimera, CF …; test: as above
# [24] = target: T6, rHuman Notch-1/Fc Chimera, CF (R&D …); test: as above
# [25] = target: T7, Recombinant Human DLL4 (R&D Systems, Cat#1506-D4/CF) (human, UniProt Q9NR61 27-529); test: ECL (MSD) Fab titration; binding affinity estimated from the 50% binding signal
# T7 construct: Bought protein; also called rHuman DLL4; delta-like protein 4
binder,measurement,setting,value
B1,ECL signal,[1],3780
same,ECL signal,[2],11700
same,ECL signal,[3],18900
same,ECL signal,[4],11800
same,ECL signal,[5],188000
same,ECL signal,[6],17600
same,ECL signal,[7],35200
same,ECL signal,[8],69700
same,ECL signal,[9],74900
same,ECL signal,[10],62500
same,ECL signal,[11],193000
same,ECL signal,[12],72000
same,ECL signal,[13],17400
same,ECL signal,[14],26000
same,ECL signal,[15],34700
same,ECL signal,[16],42200
same,ECL signal,[17],167000
same,ECL signal,[18],37500
same,ECL signal,[19],5800
same,ECL signal,[20],14800
same,ECL signal,[21],20700
same,ECL signal,[22],16600
same,ECL signal,[23],154000
same,ECL signal,[24],22000
B2,Kd,[25],≤ 10 nM
